{"source": "patent US20220042033A1", "about": "“COMPOSITION AND METHOD FOR CONFERRING AND/OR ENHANCING TOLERANCE AGAINST HERBICIDES BY USING VARIANTS OF PPO” (FarmHannong Co., Ltd., priority 2017, published 2022)", "data": [{"tested_on": "ApPPO1", "assay": "PPO enzyme activity of purified MBP-fused ApPPO1 wild type and variants", "assay_type": "biochemical, Auxenochlorella protothecoides", "settings": "PPO enzyme activity relative to ApPPO1 wild type; MBP-fused protein", "experimental": "Thus, PPO proteins of wild type and variants were expressed as fused to MBP and were used for experiments.\nThe following process for purification of PPO protein was performed in a 4° C. cold room. […] The column was washed with 3 column volumes of buffer and the presence of protein in the washing solution was examined. When the protein was no longer detected, the washing procedure was terminated. Then, the MBP-PPO protein was eluted with approximately 2 column volumes of buffer containing 20 mM maltose. The protein concentration of each eluent was determined and the elution was stopped when the protein was no longer detected. Ten microliter of each fraction was investigated for protein quantification and SDS-PAGE analysis. The highly pure fractions of PPO protein variants were used for the enzyme assay.\nSince protoporphyrinogen IX, a substrate of PPO protein, was not commercially available, it was chemically synthesized in the laboratory. Overall process was performed in dark under nitrogen stream. […] of protoporphyrin IX was dissolved in 20 ml of 20% (v/v) EtOH, and stirred under dark condition for 30 minutes. The obtained protoporphyrin IX solution was put into a 15 ml screw tube in an amount of 800 μl, and flushed with nitrogen gas for 5 minutes. To this, 1.5 g of sodium amalgam was added and vigorously shaken for 2 minutes. The lid was opened to exhaust hydrogen gas in the tube. Thereafter, the lid was closed and incubated for 3 minutes. The protoporphyrinogen IX solution was filtered using syringe and cellulose membrane filter. To 600 μl of the obtained protoporphyrinogen IX solution, approximately 300 μl of 2M MOPS [3-(N-morpholino) propanesulfonic acid] was added to adjust pH to 8.0. To determine the enzyme activity of PPO protein, a reaction mixture was prepared with the following composition (based on 10 ml): 50 mM Tris-Cl (pH 8.0); 50 mM NaCl; 0.04% (v/v) Tween 20; 40 mM glucose (0.072 g); 5 units glucose oxidase (16.6 mg); and 10 units catalase (1 μl).\nHundred and eighty microliters of a reaction mixture […] were placed in 96 well plates and 20 μl of purified PPO proteins were added. After 50 μl of the mineral oil was layered, the reaction was initiated by adding the substrate, protoporphyrinogen IX solution, to a final concentration of 50 μM. The reaction proceeded at room temperature for 30 min and the fluorescence of protoporphyrin IX was measured using Microplate reader (Sense, Hidex) (excitation: 405 nm; emission: 633 nm). To calculate the PPO enzyme activity, the protoporphyrinogen IX solution was kept open in the air overnight to oxidize the solution. To this, 2.7 N HCl was added, and the absorbance at 408 nm was measured. A standard curve was generated using standard protoporphyrin IX, and PPO activity was measured by calibration of protoporphyrin IX using the standard curve of protoporphyrin IX.\nActivities of variants were presented relatively compared to that of wild type.", "units": {"Activity (%)": "%"}, "values": [{"molecule": "Y422M: ApPPO1 (SEQ ID NO: 1) variant (protein, Synthetic (Protoporphyrinogen IX oxidase (ApPPO1) of Auxenochlorella protothecoides)) MPFTHLKPLNRLLGSPRARHPHVAPQAVSVTNTSTTRPGGRSSAPGIPGDAEYDVVIVGAGISGLTTAQALAKQYSDAVPRLLVTEARDCVGGNIITRRDGGYQWEEGPNSFQPSDAVLRAAVDAGVADRLVLGDPKAPRYVYWGGRLRATPSGPDVLTFDLLSLWGKLRAGLGAAGFKAPLPEREESVKEFVTRNLGEEVFQRLIEPFCSGVYAGDPAKLSMKAAFGKVYDLEKGGGSIVGGVLALMKARKQKPPEPRPADLPPKPKGQTVGSFDKGLVTLPSAIAEELGDRVVTGWKLESIDRSGDRFQLTYDTPQGRKKVSARSVALTVPAYTAASLLESRFPKLGKALSSIYYPPVASVALSYPETAILPERLGSDGHLAGFGQLHPRTQGVTTLGTIYASSLFPGRVPEGKVLLLSMFGGATNTRVATMPHGEIVSQVDKDLRKMLIRSDAESPHTVNVTVWPRAIPQFNVGHTDLIQEAKDDLASQGWQGLHLGGNYVAGVALGKCMEAGYKQAAELASHVKSLAT", "Activity (%)": 93}, {"molecule": "Y422I: ApPPO1 (SEQ ID NO: 1) variant (protein, Synthetic (Protoporphyrinogen IX oxidase (ApPPO1) of Auxenochlorella protothecoides)) MPFTHLKPLNRLLGSPRARHPHVAPQAVSVTNTSTTRPGGRSSAPGIPGDAEYDVVIVGAGISGLTTAQALAKQYSDAVPRLLVTEARDCVGGNIITRRDGGYQWEEGPNSFQPSDAVLRAAVDAGVADRLVLGDPKAPRYVYWGGRLRATPSGPDVLTFDLLSLWGKLRAGLGAAGFKAPLPEREESVKEFVTRNLGEEVFQRLIEPFCSGVYAGDPAKLSMKAAFGKVYDLEKGGGSIVGGVLALMKARKQKPPEPRPADLPPKPKGQTVGSFDKGLVTLPSAIAEELGDRVVTGWKLESIDRSGDRFQLTYDTPQGRKKVSARSVALTVPAYTAASLLESRFPKLGKALSSIYYPPVASVALSYPETAILPERLGSDGHLAGFGQLHPRTQGVTTLGTIYASSLFPGRVPEGKVLLLSIFGGATNTRVATMPHGEIVSQVDKDLRKMLIRSDAESPHTVNVTVWPRAIPQFNVGHTDLIQEAKDDLASQGWQGLHLGGNYVAGVALGKCMEAGYKQAAELASHVKSLAT", "Activity (%)": 91}, {"molecule": "F209A + Y422M: ApPPO1 (SEQ ID NO: 1) variant (protein, Synthetic (Protoporphyrinogen IX oxidase (ApPPO1) of Auxenochlorella protothecoides)) MPFTHLKPLNRLLGSPRARHPHVAPQAVSVTNTSTTRPGGRSSAPGIPGDAEYDVVIVGAGISGLTTAQALAKQYSDAVPRLLVTEARDCVGGNIITRRDGGYQWEEGPNSFQPSDAVLRAAVDAGVADRLVLGDPKAPRYVYWGGRLRATPSGPDVLTFDLLSLWGKLRAGLGAAGFKAPLPEREESVKEFVTRNLGEEVFQRLIEPACSGVYAGDPAKLSMKAAFGKVYDLEKGGGSIVGGVLALMKARKQKPPEPRPADLPPKPKGQTVGSFDKGLVTLPSAIAEELGDRVVTGWKLESIDRSGDRFQLTYDTPQGRKKVSARSVALTVPAYTAASLLESRFPKLGKALSSIYYPPVASVALSYPETAILPERLGSDGHLAGFGQLHPRTQGVTTLGTIYASSLFPGRVPEGKVLLLSMFGGATNTRVATMPHGEIVSQVDKDLRKMLIRSDAESPHTVNVTVWPRAIPQFNVGHTDLIQEAKDDLASQGWQGLHLGGNYVAGVALGKCMEAGYKQAAELASHVKSLAT", "Activity (%)": 51}, {"molecule": "V360M + Y422M: ApPPO1 (SEQ ID NO: 1) variant (protein, Synthetic (Protoporphyrinogen IX oxidase (ApPPO1) of Auxenochlorella protothecoides)) MPFTHLKPLNRLLGSPRARHPHVAPQAVSVTNTSTTRPGGRSSAPGIPGDAEYDVVIVGAGISGLTTAQALAKQYSDAVPRLLVTEARDCVGGNIITRRDGGYQWEEGPNSFQPSDAVLRAAVDAGVADRLVLGDPKAPRYVYWGGRLRATPSGPDVLTFDLLSLWGKLRAGLGAAGFKAPLPEREESVKEFVTRNLGEEVFQRLIEPFCSGVYAGDPAKLSMKAAFGKVYDLEKGGGSIVGGVLALMKARKQKPPEPRPADLPPKPKGQTVGSFDKGLVTLPSAIAEELGDRVVTGWKLESIDRSGDRFQLTYDTPQGRKKVSARSVALTVPAYTAASLLESRFPKLGKALSSIYYPPMASVALSYPETAILPERLGSDGHLAGFGQLHPRTQGVTTLGTIYASSLFPGRVPEGKVLLLSMFGGATNTRVATMPHGEIVSQVDKDLRKMLIRSDAESPHTVNVTVWPRAIPQFNVGHTDLIQEAKDDLASQGWQGLHLGGNYVAGVALGKCMEAGYKQAAELASHVKSLAT", "Activity (%)": 8}, {"molecule": "F386V + Y422M: ApPPO1 (SEQ ID NO: 1) variant (protein, Synthetic (Protoporphyrinogen IX oxidase (ApPPO1) of Auxenochlorella protothecoides)) MPFTHLKPLNRLLGSPRARHPHVAPQAVSVTNTSTTRPGGRSSAPGIPGDAEYDVVIVGAGISGLTTAQALAKQYSDAVPRLLVTEARDCVGGNIITRRDGGYQWEEGPNSFQPSDAVLRAAVDAGVADRLVLGDPKAPRYVYWGGRLRATPSGPDVLTFDLLSLWGKLRAGLGAAGFKAPLPEREESVKEFVTRNLGEEVFQRLIEPFCSGVYAGDPAKLSMKAAFGKVYDLEKGGGSIVGGVLALMKARKQKPPEPRPADLPPKPKGQTVGSFDKGLVTLPSAIAEELGDRVVTGWKLESIDRSGDRFQLTYDTPQGRKKVSARSVALTVPAYTAASLLESRFPKLGKALSSIYYPPVASVALSYPETAILPERLGSDGHLAGVGQLHPRTQGVTTLGTIYASSLFPGRVPEGKVLLLSMFGGATNTRVATMPHGEIVSQVDKDLRKMLIRSDAESPHTVNVTVWPRAIPQFNVGHTDLIQEAKDDLASQGWQGLHLGGNYVAGVALGKCMEAGYKQAAELASHVKSLAT", "Activity (%)": 65}, {"molecule": "Y422T: ApPPO1 (SEQ ID NO: 1) variant (protein, Synthetic (Protoporphyrinogen IX oxidase (ApPPO1) of Auxenochlorella protothecoides)) MPFTHLKPLNRLLGSPRARHPHVAPQAVSVTNTSTTRPGGRSSAPGIPGDAEYDVVIVGAGISGLTTAQALAKQYSDAVPRLLVTEARDCVGGNIITRRDGGYQWEEGPNSFQPSDAVLRAAVDAGVADRLVLGDPKAPRYVYWGGRLRATPSGPDVLTFDLLSLWGKLRAGLGAAGFKAPLPEREESVKEFVTRNLGEEVFQRLIEPFCSGVYAGDPAKLSMKAAFGKVYDLEKGGGSIVGGVLALMKARKQKPPEPRPADLPPKPKGQTVGSFDKGLVTLPSAIAEELGDRVVTGWKLESIDRSGDRFQLTYDTPQGRKKVSARSVALTVPAYTAASLLESRFPKLGKALSSIYYPPVASVALSYPETAILPERLGSDGHLAGFGQLHPRTQGVTTLGTIYASSLFPGRVPEGKVLLLSTFGGATNTRVATMPHGEIVSQVDKDLRKMLIRSDAESPHTVNVTVWPRAIPQFNVGHTDLIQEAKDDLASQGWQGLHLGGNYVAGVALGKCMEAGYKQAAELASHVKSLAT", "Activity (%)": 84}]}]}
